# Measurements reported in patent US20250034275A1 (CHIA TAI TIANQING PHARMACEUTICAL GROUP, published 2025).
# T1: human Trop-2 (on the surface of human cell lines) (human, UniProt P09758 27-323)
# T1 sequence: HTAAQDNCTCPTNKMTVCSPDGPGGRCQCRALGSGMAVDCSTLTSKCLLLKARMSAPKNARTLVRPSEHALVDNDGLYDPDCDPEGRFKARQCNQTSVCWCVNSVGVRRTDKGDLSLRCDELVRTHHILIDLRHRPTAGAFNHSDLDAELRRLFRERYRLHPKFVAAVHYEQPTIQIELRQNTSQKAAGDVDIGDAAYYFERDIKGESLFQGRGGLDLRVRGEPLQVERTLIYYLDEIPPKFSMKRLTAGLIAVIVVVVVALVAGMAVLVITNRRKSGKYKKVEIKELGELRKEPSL
# T2: human Trop-2-His (human, UniProt P09758 27-274, limits assumed)
# T2 construct: by analogy with the macaque construct it is probably the extracellular domain with a His tag; also called Trop-2-His protein
# T2 sequence: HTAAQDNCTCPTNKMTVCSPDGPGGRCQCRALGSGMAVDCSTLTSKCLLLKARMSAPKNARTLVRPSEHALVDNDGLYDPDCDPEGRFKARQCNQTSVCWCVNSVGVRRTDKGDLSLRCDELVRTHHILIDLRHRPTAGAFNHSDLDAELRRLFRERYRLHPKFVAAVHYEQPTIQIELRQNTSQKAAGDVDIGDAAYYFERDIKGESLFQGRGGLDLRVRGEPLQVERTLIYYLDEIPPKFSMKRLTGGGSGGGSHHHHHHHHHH
# T3: Macaque Trop-2-His (macaque, UniProt P09758 27-274 (human entry))
# T3 construct: Extracellular domain of macaque Trop-2 recombinantly linked to His; also called monkey Trop-2-His protein; monkey Trop-2
# T3 chain: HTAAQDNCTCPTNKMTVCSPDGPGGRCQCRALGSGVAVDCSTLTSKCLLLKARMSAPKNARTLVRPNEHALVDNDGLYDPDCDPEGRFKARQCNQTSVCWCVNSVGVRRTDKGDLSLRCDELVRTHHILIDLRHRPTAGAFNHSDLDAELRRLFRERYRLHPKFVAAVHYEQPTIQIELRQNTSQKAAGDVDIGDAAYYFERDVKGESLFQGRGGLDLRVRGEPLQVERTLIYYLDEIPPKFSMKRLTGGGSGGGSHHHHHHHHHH
# Assays:
# [1] = target: T1, human Trop-2 (on the surface of human …); experiment: cell-based or functional assay
# [2] = target: T1, human Trop-2 (on the surface of human …); experiment: cell-based or functional assay; remark: listed apart in the source
# [3] = target: T1, human Trop-2 (on the surface of human …); experiment: flow cytometry, HCC38 cells
# Protocol: (§1) Tumor cells expressing Trop-2 were prepared into a cell suspension (0.5-1×10⁶ cells/mL) using the FACS buffer (Miltenyi Biotec, 130-091-221), and the cell suspension was added to a 96-well V-bottom plate at 100 μL/well. After centrifugation and removal of the supernatant, the test antibodies diluted with the FACS buffer to different concentrations (0.006 nM-100 nM) were each added at 50 μL/well. The mixture was incubated in the dark in a 4° C. refrigerator for 1 h. The plate was then washed 3 times with the FACS buffer by centrifugation at 300 g, and Alexa Fluor 488 goat anti-human IgG (H+L) (Bio-legend, 409304, 1:500 dilution) at working concentration was added. The mixture was incubated in the dark in a 4° C. refrigerator for 40 min. The plate was then washed 3 times with the FACS buffer by centrifugation at 300 g, the geometric mean fluorescence intensity (MFI) was measured on a Sartorius iQue3 flow cytometer, and the binding EC₅₀ values of the antibodies for tumor cells with different Trop-2 expression levels were calculated
# [4] = target: T1, human Trop-2 (on the surface of human …); experiment: flow cytometry, HCC1806 cells
# Protocol: as §1
# human Trop-2-His [5] = target: T2, human Trop-2-His; experiment: ELISA, plate-coated human Trop-2-His
# Protocol: (§2) After the liquid was discarded, 2% BSA (SIGMA, B2064-100G) diluted with PBS was added at 300 μL/well for blocking, and the mixture was incubated at 37° C. for 2 h. After the blocking was completed, the blocking buffer was discarded, the plate was washed 3 times with PBST buffer (pH 7.4 PBS containing 0.1% tween-20), the antibody solution diluted in a gradient was added at 100 μL/well, and the mixture was incubated at 37° C. for 1 h. After the incubation was completed, the plate was washed 3 times with PBST, the goat anti-human IgG (H+L) (JacksonImmunoResearch, 109-035-098, 1:5000 dilution) was added at 100 μL/well, and the mixture was incubated at 37° C. for 1 h. After the plate was washed 3 times with PBST, a TMB chromogenic substrate (TIANGEN, PA107-01) was added at 100 μL/well. The mixture was incubated at room temperature for 10-15 min, and then 1 M H₂SO₄ was added at 50 μL/well to terminate the reaction. The absorbance values at 450 nm were taken using a microplate reader. The binding curves of antibodies for antigen were fitted using software, and the EC₅₀ values were calculated.
# Macaque Trop-2-His = target: T3, Macaque Trop-2-His; experiment: ELISA, plate-coated macaque Trop-2-His
# Protocol: as §2, with “times with the PBST buffer” for “times with PBST buffer”
# human Trop-2-His [6] = target: T2, human Trop-2-His; experiment: SPR (Biacore 8K), antibody captured, Trop-2-His as analyte
# Description: The affinity of antibodies for human Trop-2-His was detected in the form of antibody capturing. The antibody was affinity-captured by a CM5 (Cat. #29149603, GE) biosensor chip conjugated with an anti-human IgG antibody (from human antibody capture kit, Cat. #29234600, GE), then the antigen human Trop-2-His flowed on the surface of the chip, and a Biacore 8K instrument was used for detecting reaction signals in real time to obtain association and dissociation curves. After dissociation was completed for each assay cycle, the chip was washed clean and regenerated with a regeneration buffer, 3M MgCl₂ (from human antibody capture kit, Cat. #29234600, GE). The association and dissociation curves were collected by Biacore 8K Control Software 3.0 in real time, and the data were analyzed by Biacore Insight Evaluation Software 3.0. The data were fitted using a Langmuir 1:1 model after double subtraction (namely, in each cycle, the contrast channel signal was subtracted from the experimental channel signal, and the sample signal was subtracted from the blank signal), and the association rate constant Ka, the dissociation rate constant Kd, and the equilibrium constant KD were calculated.
# [7] = target: T1, human Trop-2 (on the surface of human …); experiment: flow cytometry, OVCAR-3 cells
# Protocol: as §1
Binder,"ADCC reporter (Jurkat-CD16a v158-NFAT-luciferase), target cell H322, EC50 [1]","ADCC reporter (Jurkat-CD16a v158-NFAT-luciferase), target cell HCC1806, EC50 [1]",EC50 [3],EC50 [4],EC50 (human Trop-2-His [5]),EC50 (Macaque Trop-2-His),Kd (human Trop-2-His [6]),koff (human Trop-2-His [6]),kon (human Trop-2-His [6]),EC50 [7],"ADCC, PBMC killing (LDH), H322, EC50 [2]","ADCC, PBMC killing (LDH), H322, Maximum killing (%) [2]","ADCC, PBMC killing (LDH), HCC1806, EC50 [2]","ADCC, PBMC killing (LDH), HCC1806, Maximum killing (%) [2]"
"hz-Ab21-1.1 (antibody, human IgG1, kappa, V domains shown, Humanized antibody) VH: EVQLVESGGGLVKPGGSLRLSCAASGFTLRNYGVHWVRQAPGKGLEWVGVIWSSGTTDYAAPVKGRFTISKDNSKNTLYLQMNSLKTEDTAVYYCTRDGDYDYYTMDYWGQGTLVTVSS VL: EIVLTQSPATLSLSPGERATLSCRASKSVSTSAYSYIHWYQQKPGQAPRLLIYLTSNLESGIPARFSGSGSGTDFTLTISSLEPEDFAVYYCQHSRELPYTFGQGTKVEIKR",–,–,0.55 nM,0.64 nM,0.162 nM,0.098 nM,1.2 nM,0.000514 s⁻¹,429000 M⁻¹ s⁻¹,0.62 nM,–,–,–,–
"ch-Ab35 (antibody, human IgG1, kappa, V domains shown, Mouse VH/VL on human IgG1 and human kappa constant regions; also called chimeric antibody of Ab35) VH: EVQLQQSGPDLVRPGASVKLSCKASGYTFTSSDINWVKQRPGQGLEWIGWIYPRDGSKKYNEKFKGKATLTVDTSSSTAYMEVHSLTSEDSAVYFCATRFATVVSNYGLDPWGQGTSVTVSS VL: AIVLTQSPAIMSASPGEKVTMTCSASSSVNYIYWYQRKPGSSPRLLIYDTSNLASGVPVRFSGSGSGTSYSLTISRMEAEDAATYYCQQWNSYPLTFGAGTKLELKR",0.02 nM,0.04 nM,0.45 nM,0.38 nM,0.043 nM,0.048 nM,–,–,–,0.37 nM,0.01 nM,51.9%,0.02 nM,38%
"ch-Ab21 (antibody, human IgG1, kappa, V domains shown, Mouse VH/VL on human IgG1 and human kappa constant regions; also called chimeric antibody of Ab21) VH: EVQLKQSGPGLVQPSQSLSITCTVSGFSLRNYGVHWVRQSPGKGLEWLGVIWSSGTTDYNAAFISRLSITKDNSKSQVFFKMNSLQVDDTAIYNCARDGDYDYYTMDYWGQGTSVTVSS VL: AIVLTQSPASLAVSLGQRATISCRASKSVSTSAYSYIHWYQQKPGQPPKLLIYLTSNLESGVPARFSGSGSGTDFTLNIHPVEEEDAATYYCQHSRELPYTFGGGTKLEIKR",0.04 nM,0.08 nM,0.64 nM,0.65 nM,0.165 nM,0.093 nM,–,–,–,1.02 nM,0.13 nM,54%,0.03 nM,40.3%

# Second part, led by results:
"ADCC reporter (Jurkat-CD16a v158-NFAT-luciferase), target cell H322, EC50 [1]","ADCC reporter (Jurkat-CD16a v158-NFAT-luciferase), target cell HCC1806, EC50 [1]",EC50 [3],EC50 [4],EC50 (human Trop-2-His [5]),EC50 (Macaque Trop-2-His),Kd (human Trop-2-His [6]),koff (human Trop-2-His [6]),kon (human Trop-2-His [6]),EC50 [7],Binder,"ADCC, PBMC killing (LDH), H322, EC50 [2]","ADCC, PBMC killing (LDH), H322, Maximum killing (%) [2]","ADCC, PBMC killing (LDH), HCC1806, EC50 [2]","ADCC, PBMC killing (LDH), HCC1806, Maximum killing (%) [2]"
0.66 nM,1.51 nM,0.45 nM,1.23 nM,0.1 nM,0.07 nM,11.6 nM,0.00483 s⁻¹,415000 M⁻¹ s⁻¹,–,"hz-Ab2-2.4 (antibody, human IgG1, kappa, V domains shown, Humanized antibody) VH: QVQLQESGPGLVKPSETLSLTCTVSGFSLTYYGIDWIRQPPGKGLEWIGVIWGSGNTKYNSALKSRVTISKDNSKSQVYLKLSSVTAADTAVYYCARFYEGFAYWGQGTLVTVSS VL: DIQMTQSPSSLSASVGDRVTITCRASQDINSYLSWFQQKPGKAPKTLIYRANRLVEGVPSRFSGSGSGQDFTLTISSLQPEDFATYYCLQYDEYPLTFGQGTKVEIKR",0.07 nM,46.7%,0.15 nM,33.3%
–,–,0.66 nM,1.23 nM,0.248 nM,0.086 nM,0.973 nM,0.000438 s⁻¹,450000 M⁻¹ s⁻¹,0.67 nM,"hz-Ab21-1.2 (antibody, human IgG1, kappa, V domains shown, Humanized antibody) VH: EVQLVESGGGLVKPGGSLRLSCAASGFTLRNYGVHWVRQAPGKGLEWVGVIWSSGTTDYNAAFISRFTISKDNSKNTLYLQMNSLKTEDTAVYYCTRDGDYDYYTMDYWGQGTLVTVSS VL: EIVLTQSPATLSLSPGERATLSCRASKSVSTSAYSYIHWYQQKPGQAPRLLIYLTSNLESGIPARFSGSGSGTDFTLTISSLEPEDFAVYYCQHSRELPYTFGQGTKVEIKR",–,–,–,–
0.21 nM,0.39 nM,0.64 nM,0.63 nM,0.214 nM,0.064 nM,1.38 nM,0.000559 s⁻¹,404000 M⁻¹ s⁻¹,0.68 nM,"hz-Ab21-2.1 (antibody, human IgG1, kappa, V domains shown, Humanized antibody) VH: EVQLVESGGGLVKPGGSLRLSCAASGFTLRNYGVHWVRQAPGKGLEWVGVIWSSGTTDYAAPVKGRFTISKDNSKNTLYLQMNSLKTEDTAVYYCTRDGDYDYYTMDYWGQGTLVTVSS VL: EIVLTQSPATLSLSPGERATLSCRASKSVSTSAYSYIHWYQQKPGQPPRLLIYLTSNLESGIPARFSGSGSGTDFTLTISSLEPEDFAVYYCQHSRELPYTFGQGTKVEIKR",0.02 nM,44.5%,0.12 nM,32.2%
